How the values were obtained:
Amyloid β 1–40 H6A [1] = test: SPR; preformed fibrils immobilised on a CM5 chip by amine coupling (3500 RU), probed with monomers of the same variant; monomer onto fibril end; 25 °C, 20 μL/min, 20 mM phosphate pH 7.4, 150 mM NaCl; slow phase of dissociation only; KD = RD/RA x KD of Aβ1-40 wt (100 nM, from earlier work)
Amyloid β 1–40 H6A [2] = test: SPR; preformed fibrils immobilised on a CM5 chip by amine coupling (3500 RU), probed with monomers of the same variant; monomer onto fibril end; 25 °C, 20 μL/min, 20 mM acetate pH 5.5, 150 mM NaCl; slow phase of dissociation only; KD = RD/RA x KD of Aβ1-40 wt (1 nM, from earlier work)
[3] = biological target: Amyloid β 1–40 H6A, H13A, H14A; test: SPR; preformed fibrils immobilised on a CM5 chip by amine coupling (3500 RU), probed with monomers of the same variant; monomer onto fibril end; 25 °C, 20 μL/min, 20 mM phosphate pH 7.4, 150 mM NaCl; slow phase of dissociation only; KD = RD/RA x KD of Aβ1-40 wt (100 nM, from earlier work)
[4] = biological target: Amyloid β 1–40 H6A, H13A, H14A; test: SPR; preformed fibrils immobilised on a CM5 chip by amine coupling (3500 RU), probed with monomers of the same variant; monomer onto fibril end; 25 °C, 20 μL/min, 20 mM acetate pH 5.5, 150 mM NaCl; slow phase of dissociation only; KD = RD/RA x KD of Aβ1-40 wt (1 nM, from earlier work)
Amyloid β 1–40 H13A [5] = test: SPR; preformed fibrils immobilised on a CM5 chip by amine coupling (3500 RU), probed with monomers of the same variant; monomer onto fibril end; 25 °C, 20 μL/min, 20 mM phosphate pH 7.4, 150 mM NaCl; slow phase of dissociation only; KD = RD/RA x KD of Aβ1-40 wt (100 nM, from earlier work)
Amyloid β 1–40 H13A [6] = test: SPR; preformed fibrils immobilised on a CM5 chip by amine coupling (3500 RU), probed with monomers of the same variant; monomer onto fibril end; 25 °C, 20 μL/min, 20 mM acetate pH 5.5, 150 mM NaCl; slow phase of dissociation only; KD = RD/RA x KD of Aβ1-40 wt (1 nM, from earlier work)
Amyloid β 1–40 H14A [7] = test: SPR; preformed fibrils immobilised on a CM5 chip by amine coupling (3500 RU), probed with monomers of the same variant; monomer onto fibril end; 25 °C, 20 μL/min, 20 mM phosphate pH 7.4, 150 mM NaCl; slow phase of dissociation only; KD = RD/RA x KD of Aβ1-40 wt (100 nM, from earlier work)
Amyloid β 1–40 H14A [8] = test: SPR; preformed fibrils immobilised on a CM5 chip by amine coupling (3500 RU), probed with monomers of the same variant; monomer onto fibril end; 25 °C, 20 μL/min, 20 mM acetate pH 5.5, 150 mM NaCl; slow phase of dissociation only; KD = RD/RA x KD of Aβ1-40 wt (1 nM, from earlier work)
[9] = test system: corresponding immobilised fibrils (fibrillar form of Aβ); test: SPR association rate k(on) of Aβ monomers onto immobilised fibrils, relative to Aβ1–40 wt; assay type: binding; conditions: 150 mM NaCl, 25 °C, 20 μL·min^−1, CM5 chip, fibrils at 3500 RU, end state after 60 s injection, Aβ1–40 wt = 1
Description: (§1) Recombinant variants of Aβ1–40, Aβ1–40 H6A, Aβ1–40 H13A, Aβ1–40 H14A and Aβ1–40 H6A, H13A, H14A were obtained from AlexoTech (Umeå, Sweden). All lyophilised peptides were solubilised in 20 mM NaOH and separated by size‐exclusion chromatography (Superdex 10/300, GE Life Science, Uppsala, Sweden) in PBS with 2 mM EDTA, 5 mM NaOH and 150 mM NaCl. The pH of all purified peptide solutions was adjusted using a stock solution of phosphate or acetate buffer to give a final buffer concentration corresponding to 20 mM phosphate (pH 7.4) or acetate (pH 5.5) and 150 mM NaCl.
(§2) The interaction study between the fibrillar form of Aβ and its monomeric form was performed using a BIAcore® 3000 biosensor (GE Healthcare®, Uppsala, Sweden) equipped with a CM5 sensor chip (GE Healthcare®). First, the fibrillar form of Aβ was immobilised at a density of 3500 response units (RUs) on the dextran layer of the chip using standard amino coupling reagents at pH 4.0. All SPR experiments were performed at 25 °C at a flow rate of 20 μL·min^−1 in either a 20 mM phosphate buffer (pH 7.4) or 20 mM acetate buffer (pH 5.5). All experiments were performed in the presence of 150 mM NaCl, which represents a physiological ion‐strength.
Due to the polymeric nature of amyloid fibrils, the covalent immobilisation on the sensor chip, likely only occurs in minor fraction of the accessible amino groups. This treatment is therefore not anticipated to influence the overall incorporation of monomers in a significant manner. However, the influence from using immobilised fibrils or the dextran layer cannot be fully excluded and should therefore be disclosed.
(§3) All sensograms were corrected for nonspecific interactions using a reference surface according to standard procedures 16.
Probing free monomeric Aβ against immobilised fibrils using SPR is a frequently used technique for measuring the intrinsic kinetic properties of Aβ polymerisation 11, 14, 17, 18, 19.
Fibrils from recombinant variants of Aβ1–40, Aβ1–40 H6A, Aβ1–40 H13A, Aβ1–40 H14A and Aβ1–40 H6A, H13A, H14A were prepared by prolonged incubation in either PBS (pH 7.4) or acetate buffer pH 5.5 containing 150 mM NaCl. Fibrils immobilised on a CM5 chip were then probed with their monomeric counterpart at different concentrations of Aβ monomers and analysed by SPR. Samples were injected for exactly 60 s and the maximal value at the end state of each injection (indicated by arrow 1 in Fig. 1A) was plotted as a function of the monomeric concentration, Fig. 2. This generates an association rate at each point of measurement. A guideline is given in the figures to illustrate the linearity.
By comparing the rate between the different Aβ variants, it is possible to determine relative differences in k(on).

[10] = test system: corresponding immobilised fibrils (fibrillar form of Aβ); test: SPR dissociation rate k(off) of Aβ fibrils, slow phase, relative to Aβ1–40 wt; assay type: binding; conditions: 150 mM NaCl, 25 °C, after 2 μM monomer injection, slow phase, points before 100 s excluded, one exponential decay, Aβ1–40 wt = 1
Description: as §1, §2, §3
Note that the dissociation phase exposes a biphasic curvature. This is highly representative and frequently observed when performing these kinds of experiments. […] All analyses of decay rates within this work are therefore exclusively focused on the slower second phase of dissociation.
In contrast to the association rate, kon, the rate of dissociation, koff, is independent of the concentration of monomers. Subsequent to probing, the immobilised fibrils with free monomers, the rate of dissociation can be seen as a decrease in the signal over time.
Because the latter part of the curve, representing the slower phase of dissociation (indicated by arrow 3 Fig. 1), strongly dominates the interaction strength, we have exclusively focused on this part, and no points before 100 s were included in the curve. The dissociation curve could then be fitted to a one exponential decay.

[11] = test system: immobilised Aβ fibrils / fibrillar end; test: Fibril stability (KD, RD/RA, potentiation factor) from SPR association and dissociation; assay type: binding; conditions: 25 °C, relative to Aβ1–40 wt
Description: as §2, §3
While a simple interaction between, for example, a receptor and ligand can easily be determined through saturation experiments, this cannot be done with polymers since they, per definition, cannot be saturated.
This problem can, however, be circumvented by defining the concentration of free monomers where the fibrils are at steady state, i.e. the concentration of free monomers where neither association nor dissociation can be detected. We have previously shown that the KD for Aβ1–40 wt at neutral pH is around 100 nM and around 1 nM at pH 5.5 11, 13. The KD at neutral pH has also been investigated by Hasegawa and co‐workers 14 with similar results. All figures used here are therefore given as relative values to the KD for Aβ1–40 wt corresponding to 100 nM at neutral pH and 1 nM at pH 5.5.
Multiplying the relative RD/RA with the KD for Aβ 1–40 wt will then give the KD for the histidine derivatives.

For Amyloid β 1–40 H6A (peptide), the Kd (Amyloid β 1–40 H6A [1]) was 427 nM, the RA (association rate relative to Aβ1-40 wt) (Amyloid β 1–40 H6A [1]) was 0.45 and the RD (dissociation rate relative to Aβ1-40 wt) (Amyloid β 1–40 H6A [1]) was 1.92. For the same substance, the Kd (Amyloid β 1–40 H6A [2]) was 1.43 nM, the RA (association rate relative to Aβ1-40 wt) (Amyloid β 1–40 H6A [2]) was 1.94 and the RD (dissociation rate relative to Aβ1-40 wt) (Amyloid β 1–40 H6A [2]) was 2.78.

“Amyloid β 1–40 H6A, H13A, H14A (peptide)” was tested, and the Kd [3] was 1230 nM, the RA (association rate relative to Aβ1-40 wt) [3] was 0.22 and the RD (dissociation rate relative to Aβ1-40 wt) [3] was 2.7. The Kd [4] was 5.31 nM, the RA (association rate relative to Aβ1-40 wt) [4] was 1.57 and the RD (dissociation rate relative to Aβ1-40 wt) [4] was 8.33.

Substance Amyloid β 1–40 H13A (peptide) has a Kd (Amyloid β 1–40 H13A [5]) of 716 nM, an RA (association rate relative to Aβ1-40 wt) (Amyloid β 1–40 H13A [5]) of 0.31 and an RD (dissociation rate relative to Aβ1-40 wt) (Amyloid β 1–40 H13A [5]) of 2.22. The Kd (Amyloid β 1–40 H13A [6]) was 2.11 nM, the RA (association rate relative to Aβ1-40 wt) (Amyloid β 1–40 H13A [6]) was 1.01 and the RD (dissociation rate relative to Aβ1-40 wt) (Amyloid β 1–40 H13A [6]) was 2.13.

For Amyloid β 1–40 H14A (peptide), the Kd (Amyloid β 1–40 H14A [7]) was 794 nM, the RA (association rate relative to Aβ1-40 wt) (Amyloid β 1–40 H14A [7]) was 0.34 and the RD (dissociation rate relative to Aβ1-40 wt) (Amyloid β 1–40 H14A [7]) was 2.7. It also gave a Kd (Amyloid β 1–40 H14A [8]) of 2.19 nM, an RA (association rate relative to Aβ1-40 wt) (Amyloid β 1–40 H14A [8]) of 1.01 and an RD (dissociation rate relative to Aβ1-40 wt) (Amyloid β 1–40 H14A [8]) of 2.22.

In the case of Aβ1–40 H6A, the “RA, relative association (k(on) versus Aβ1–40 wt)” value ([9]; pH 5.5, 20 mM acetate) is reported as 1.94, the “RA, relative association (k(on) versus Aβ1–40 wt)” value ([9]; pH 7.4, 20 mM phosphate) is reported as 0.45 and the “RD, relative dissociation (k(off) versus Aβ1–40 wt)” value ([10]; pH 5.5, 20 mM acetate) is reported as 2.78. For the same substance, the “RD, relative dissociation (k(off) versus Aβ1–40 wt)” value ([10]; pH 7.4, 20 mM phosphate) was 1.92, the RD/RA ([11]; pH 5.5, 150 mM NaCl) was 1.43 and the RD/RA ([11]; pH 7.4, 150 mM NaCl) was 4.27.
